{"source": "paper PMC12329526", "about": "“Molecular arrangements that accompany binding of rice xylanase inhibitor protein OsXIP and the Rhizopus oryzae GH11 xylanase RXyn2” (The Journal of Biological Chemistry, 2025)", "test_system": "T1, O=[N+]([O-])c1ccc(O[C@@H]2OC[C@@H](O[C@@H]3OC[C@@H](O)[C@H](O)[C@H]3O)[C@H](O)[C@H]2O)cc1", "T1 construct": "mature form Leu20-Ser216 (197 residues), signal peptide removed, N-terminal His6 tag (pRham N-His), E. coli 10G, synthetic codon-optimised gene, monomer, 22,340 Da", "assay": "purified protein", "format": "biochemical, Rhizopus arrhizus", "conditions": "20 mM sodium acetate, pH 5.0, 37 °C, free enzyme without OsXIP"}
{"substance": "RXyn2 (Rhizopus arrhizus)", "values": [{"measurement": "Km", "result": "5.05 ± 0.29", "unit": "mM"}]}
